3 substances from patent US20200407715 can be followed below.

The subject of series [1] is T1, Cas12i1 (IVTT-expressed) (uncultured freshwater metagenome).
T1 sequence: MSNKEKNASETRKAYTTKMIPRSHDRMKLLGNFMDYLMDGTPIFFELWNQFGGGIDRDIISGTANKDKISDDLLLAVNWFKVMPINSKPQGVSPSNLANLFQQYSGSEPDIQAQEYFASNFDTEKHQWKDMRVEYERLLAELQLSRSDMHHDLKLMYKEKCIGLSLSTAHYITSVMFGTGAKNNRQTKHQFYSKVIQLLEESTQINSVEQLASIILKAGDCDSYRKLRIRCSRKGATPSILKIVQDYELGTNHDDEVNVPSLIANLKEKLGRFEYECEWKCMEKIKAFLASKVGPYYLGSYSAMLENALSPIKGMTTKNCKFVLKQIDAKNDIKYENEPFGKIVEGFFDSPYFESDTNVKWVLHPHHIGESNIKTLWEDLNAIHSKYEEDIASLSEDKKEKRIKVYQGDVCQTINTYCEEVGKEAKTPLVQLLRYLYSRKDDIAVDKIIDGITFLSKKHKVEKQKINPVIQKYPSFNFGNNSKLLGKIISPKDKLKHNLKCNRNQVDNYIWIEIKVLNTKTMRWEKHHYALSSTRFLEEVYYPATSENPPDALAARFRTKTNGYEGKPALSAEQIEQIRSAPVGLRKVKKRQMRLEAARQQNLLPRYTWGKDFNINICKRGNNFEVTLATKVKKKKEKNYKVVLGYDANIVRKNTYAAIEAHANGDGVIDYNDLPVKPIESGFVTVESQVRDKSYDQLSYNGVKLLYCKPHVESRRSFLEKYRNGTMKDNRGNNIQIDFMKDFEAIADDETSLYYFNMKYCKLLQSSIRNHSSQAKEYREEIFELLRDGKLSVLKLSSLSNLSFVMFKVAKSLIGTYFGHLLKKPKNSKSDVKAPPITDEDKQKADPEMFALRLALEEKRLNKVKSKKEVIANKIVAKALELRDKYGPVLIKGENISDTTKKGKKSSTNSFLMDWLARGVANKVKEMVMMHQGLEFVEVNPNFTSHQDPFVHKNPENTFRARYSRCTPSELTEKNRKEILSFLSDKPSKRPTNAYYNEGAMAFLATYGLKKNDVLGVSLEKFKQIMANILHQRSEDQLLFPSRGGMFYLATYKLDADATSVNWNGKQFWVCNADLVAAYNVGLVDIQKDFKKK
The following applies: IVTT gene silencing, after 400 min.

Series [2] deals with T2, Cas12i2 mammalian construct (uncultured freshwater lake metagenome).
T2 sequence: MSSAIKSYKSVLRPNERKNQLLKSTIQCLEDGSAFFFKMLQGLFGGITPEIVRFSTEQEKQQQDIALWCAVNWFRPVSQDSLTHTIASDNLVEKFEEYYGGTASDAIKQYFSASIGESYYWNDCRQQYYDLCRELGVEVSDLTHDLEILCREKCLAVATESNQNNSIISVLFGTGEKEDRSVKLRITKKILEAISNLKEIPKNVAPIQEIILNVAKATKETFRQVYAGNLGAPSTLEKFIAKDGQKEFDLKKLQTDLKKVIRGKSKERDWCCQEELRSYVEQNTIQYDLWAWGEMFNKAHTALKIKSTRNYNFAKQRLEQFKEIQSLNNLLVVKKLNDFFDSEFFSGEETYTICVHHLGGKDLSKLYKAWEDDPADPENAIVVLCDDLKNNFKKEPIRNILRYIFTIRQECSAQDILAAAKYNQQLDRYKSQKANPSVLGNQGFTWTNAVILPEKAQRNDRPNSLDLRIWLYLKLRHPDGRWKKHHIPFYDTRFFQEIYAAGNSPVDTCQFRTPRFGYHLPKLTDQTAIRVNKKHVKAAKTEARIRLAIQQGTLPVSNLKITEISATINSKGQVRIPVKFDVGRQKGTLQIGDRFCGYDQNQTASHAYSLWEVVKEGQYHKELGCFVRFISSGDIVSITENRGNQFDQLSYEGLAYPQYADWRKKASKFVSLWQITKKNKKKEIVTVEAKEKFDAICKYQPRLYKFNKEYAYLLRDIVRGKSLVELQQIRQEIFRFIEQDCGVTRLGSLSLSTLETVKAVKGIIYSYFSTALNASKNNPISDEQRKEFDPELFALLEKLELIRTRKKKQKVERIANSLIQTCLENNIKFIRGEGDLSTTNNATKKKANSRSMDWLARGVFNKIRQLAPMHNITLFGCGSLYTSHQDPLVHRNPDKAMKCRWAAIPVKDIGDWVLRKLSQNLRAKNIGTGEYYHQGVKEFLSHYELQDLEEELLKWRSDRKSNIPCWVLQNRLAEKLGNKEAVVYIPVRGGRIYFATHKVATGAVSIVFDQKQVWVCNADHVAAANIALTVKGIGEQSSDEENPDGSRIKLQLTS
The series is described as follows: cell_activity. The following applies: PAM TTC; 293T cells, 72 h; indels centred around +20 from PAM.

For series [3], the system named is T1, Cas12i1 (IVTT-expressed) (uncultured freshwater metagenome). The following applies: IVTT gene silencing.

Like-named read-outs stand apart in the source and are kept apart here.

Substance “GFP guide complementary to template strand ; GFP plasmid (sigma 28 promoter)” returned an activity (fold GFP depletion) in series [1] of 2.

The substance “VEGFA guide for Cas12i2 (pre-crRNA) ; VEGFA locus target, TTC PAM” registered an activity in series [2] of 13 % indel.

In series [3], “GFP guide complementary to coding strand ; GFP plasmid (sigma 28 promoter)” yielded an activity (fold GFP depletion) greater than 4.
